Experiments:
Assay in all cases: purified protein, by the assay type
Design in all cases: DTNB thiol release, A412, continuous steady-state Michaelis-Menten kinetics of C-S lyase
Settings in all cases: pH 7.8; 37.0 °C
[1] = substrate: N[C@@H](CCSC[C@H](N)C(=O)O)C(=O)O
Experimental: (§1) In vitro activity assays were performed using an Epoch2 (BioTek) plate reader. Reactions were measured in 96-well plate. A continuous assay, described previously[3] was used to measure 3M3SH. A 200 μL reaction contained […], variable amounts of substrate and 0.4 mM DTNB in 50 mM KPi and 200 mM NaCl, pH 7.8. […] Each reaction was incubated at 37 °C for 30 min. Release of the thiol 3M3SH was measured by reaction with DTNB to form 2-nitro-5-thiobenzoic acid (TNB) which is measured at A412 nm every minute. Background rate of DTNB decomposition was subtracted in each assay. Michaelis–Menten plots were derived from 6 to 8 substrate concentrations using Prism Version 5.01 (GraphPad) to calculate the Kcat and KM. Enzyme concentrations were assumed to be the concentration of PLP-bound enzyme with two active sites per enzyme. Velocity curves for all in vitro kinetics are shown in the supplementary information (Supplementary Information Figures S10–S12). Next, we cloned and overexpressed genes encoding a representative range of PatB-type enzymes, with two MetC proteins as controls (Fig. 2, denoted by coloured dots) and purified the proteins for biochemical analysis.

[2] = substrate: CC(C)(CCO)SC[C@H](N)C(=O)O
Experimental: as §1

[3] = substrate: CCCC(C)(CCO)SC[C@H](N)C(=O)O
Experimental: as §1

Row | Protein | Km [1] | kcat [1] | kcat/Km [1] | Km [2] | kcat [2] | kcat/Km [2] | Km [3] | kcat [3] | kcat/Km [3]
1 | CjAecD (Corynebacterium jeikeium K411) (protein, full length; expressed in E. coli MC1061) MNATTQNNNLENTQNTCPQDSAVSVPGLATLRARGTMKWTVYDEDVLPLWVAETDFDTCPAVKQAIQSGVDREYFGYERRNQSVEKALAGFLDRRFGWQIEPTWVRLVPDVVKGVATAIDELTPQGSDVIVPVPSYHPFFDVPSAVKRPKVEVEMTKVKKNGAEEWAFDYAALEAAFASTDNPAGVGAMIVCNPYNPLGRAWRPEELAKLVELAAKYNVRLISDEIHAPVVYAPHKHTPLATLSETAARVTVTVLATSKGWNTAGLHCAQMIFTNPDDRAAMAKVSPLRTGSASTLGQVAAEAAYTDGEAWLDSELEYLEGNLDLLERRLPEVLPGAKFIRPEASFLLWVDLSEVPGLADNPGQKLLEGARVAFNEGTMFGAQGAGHVRINFGTSREILNEALDRIAEFAKEHANN | 210 µM | 1.18 s⁻¹ | 5520 M⁻¹ s⁻¹ | 800 µM | 2.65 s⁻¹ | 3160 M⁻¹ s⁻¹ | 740 µM | 1.71 s⁻¹ | 2300 M⁻¹ s⁻¹
2 | EcMalY (Escherichia coli K-12) (protein, full length; N-terminal MGGGFA and C-terminal ENLYFQG-His10; expressed in E. coli MC1061) MFDFSKVVDRHGTWCTQWDYVADRFGTADLLPFTISDMDFATAPCIIEALNQRLMHGVFGYSRWKNDEFLAAIAHWFSTQHYTAIDSQTVVYGPSVIYMVSELIRQWSETGEGVVIHTPAYDAFYKAIEGNQRTVMPVALEKQADGWFCDMGKLEAVLAKPECKIMLLCSPQNPTGKVWTCDELEIMADLCERHGVRVISDEIHMDMVWGEQPHIPWSNVARGDWALLTSGSKSFNIPALTGAYGIIENSSSRDAYLSALKGRDGLSSPSVLALTAHIAAYQQGAPWLDALRIYLKDNLTYIADKMNAAFPELNWQIPQSTYLAWLDLRPLNIDDNALQKALIEQEKVAIMPGYTYGEEGRGFVRLNAGCPRSKLEKGVAGLINAIRAVR | 2200 µM | 7.63 s⁻¹ | 3470 M⁻¹ s⁻¹ | – | – | – | 17490 µM | 4.4 s⁻¹ | 252 M⁻¹ s⁻¹
3 | BsPatB (Bacillus subtilis subsp. subtilis str. 168) (protein, full length; N-terminal MGGGFA and C-terminal ENLYFQG-His10; expressed in E. coli MC1061; homodimer, PLP on Lys234) MNFDKREERLGTQSVKWDKTGELFGVTDALPMWVADMDFRAPEAITEALKERLDHGIFGYTTPDQKTKDAVCGWMQNRHGWKVNPESITFSPGVVTALSMAVQAFTEPGDQVVVQPPVYTPFYHMVEKNGRHILHNPLLEKDGAYAIDFEDLETKLSDPSVTLFILCNPHNPSGRSWSREDLLKLGELCLEHGVTVVSDEIHSDLMLYGHKHTPFASLSDDFADISVTCAAPSKTFNIAGLQASAIIIPDRLKRAKFSASLQRNGLGGLNAFAVTAIEAAYSKGGPWLDELITYIEKNMNEAEAFLSTELPKVKMMKPDASYLIWLDFSAYGLSDAELQQRMLKKGKVILEPGTKYGPGGEGFMRLNAGCSLATLQDGLRRIKAALS | 660 µM | 0.55 s⁻¹ | 839 M⁻¹ s⁻¹ | 400 µM | 0.945 s⁻¹ | 2360 M⁻¹ s⁻¹ | 380 µM | 1.92 s⁻¹ | 5110 M⁻¹ s⁻¹

From paper PMC7385124, “The molecular basis of thioalcohol production in human body odour” (Scientific Reports, 2020)
